In article PMC7373187:
Values belong to the substance of their own block, whether it stands above or below them.

What was measured:
[1] = target: His6-GapR_(1–69), truncated GapR lacking the entire helix H3 (C. crescentus); experiment: SEC; Superdex 75 10/300 GL, 1 M NaCl and 1 mM EDTA, proteins separated from copurified DNA; His6-GapR1-89 at 50 μM, His6-GapR1-69 at 125 μM, His6-GapR1-76 at 100 μM (monomer)
[2] = target: His6-GapR_(1–69), truncated GapR lacking the entire helix H3 (C. crescentus); experiment: cross-linking; 400 mM EDC plus 100 mM NHS, 2 h, room temperature; proteins at 50 μM (monomer); 1 M NaCl and 1 mM EDTA (no DNA bound); SDS-PAGE, silver stained
[3] = target: His6-GapR_(1–76), truncated GapR lacking the hydrophobic patch of helix H3 (C. crescentus); experiment: SEC; Superdex 75 10/300 GL, 1 M NaCl and 1 mM EDTA, proteins separated from copurified DNA; His6-GapR1-89 at 50 μM, His6-GapR1-69 at 125 μM, His6-GapR1-76 at 100 μM (monomer)
[4] = target: His6-GapR_(1–76), truncated GapR lacking the hydrophobic patch of helix H3 (C. crescentus); experiment: cross-linking; 400 mM EDC plus 100 mM NHS, 2 h, room temperature; proteins at 50 μM (monomer); 1 M NaCl and 1 mM EDTA (no DNA bound); SDS-PAGE, silver stained
[5] = target: His6-GapR_(1–89), full-length wild-type GapR of Caulobacter crescentus (C. crescentus); experiment: SEC; Superdex 75 10/300 GL, 1 M NaCl and 1 mM EDTA, proteins separated from copurified DNA; His6-GapR1-89 at 50 μM, His6-GapR1-69 at 125 μM, His6-GapR1-76 at 100 μM (monomer)
[6] = target: His6-GapR_(1–89), full-length wild-type GapR of Caulobacter crescentus (C. crescentus); experiment: cross-linking; 400 mM EDC plus 100 mM NHS, 2 h, room temperature; proteins at 50 μM (monomer); 150 mM NaCl, 10% glycerol, 20 mM HEPES (for tagged and untagged GapR1-89 also 50 mM sodium phosphate); SDS-PAGE, silver stained
[7] = target: His6-GapR_(1–89), full-length wild-type GapR of Caulobacter crescentus (C. crescentus); experiment: cross-linking; 400 mM EDC plus 100 mM NHS, 2 h, room temperature; proteins at 50 μM (monomer); 1 M NaCl and 1 mM EDTA (no DNA bound); SDS-PAGE, silver stained
[8] = target: untagged GapR_(1–89) (C. crescentus); experiment: cross-linking; 400 mM EDC plus 100 mM NHS, 2 h, room temperature; proteins at 50 μM (monomer); 150 mM NaCl, 10% glycerol, 20 mM HEPES (for tagged and untagged GapR1-89 also 50 mM sodium phosphate); SDS-PAGE, silver stained

stoichiometry N [1]: 2 | stoichiometry N [2]: 2
Substance: His6-GapR_(1–69), truncated GapR lacking the entire helix H3 (domain or fragment)

stoichiometry N [3]: 2 | stoichiometry N [4]: 2
Substance: His6-GapR_(1–76), truncated GapR lacking the hydrophobic patch of helix H3 (domain or fragment)

stoichiometry N [5]: 4 | stoichiometry N [6]: 4 | stoichiometry N [7]: 4
Substance: His6-GapR_(1–89), full-length wild-type GapR of Caulobacter crescentus (natural protein)

stoichiometry N [8]: 4
Substance: untagged GapR_(1–89) (natural protein)
